# According to patent publication US20150344540A1, “NOVEL GLP-1 RECEPTOR AGONISTS WITH CHOLESTEROL EFFLUX ACTIVITY” (NOVO NORDISK A/S, priority 2012, published 2015):
# Where no end group is shown, it is not given here. [ ]: non-standard residue; d: D form. Aib = CC(C)(N)C(=O)O
# B1: [Aib8,Glu23,Val25,Glu34,Lys35,Val36,Lys37]-GLP-1-(7-37)-peptidyl-Gly-Phe-Leu amide (peptide)
# peptide: H[Aib]EGTFTSDVSSYLEGEAVKEFIAWLVEKVKGFL-NH2
# modifications: N-terminus assumed
# SMILES: CC[C@H](C)[C@H](NC(=O)[C@H](Cc1ccccc1)NC(=O)[C@H](CCC(=O)O)NC(=O)[C@H](CCCCN)NC(=O)[C@@H](NC(=O)[C@H](C)NC(=O)[C@H](CCC(=O)O)NC(=O)CNC(=O)[C@H](CCC(=O)O)NC(=O)[C@H](CC(C)C)NC(=O)[C@H](Cc1ccc(O)cc1)NC(=O)[C@H](CO)NC(=O)[C@H](CO)NC(=O)[C@@H](NC(=O)[C@H](CC(=O)O)NC(=O)[C@H](CO)NC(=O)[C@@H](NC(=O)[C@H](Cc1ccccc1)NC(=O)[C@@H](NC(=O)CNC(=O)[C@H](CCC(=O)O)NC(=O)C(C)(C)NC(=O)[C@@H](N)Cc1c[nH]cn1)[C@@H](C)O)[C@@H](C)O)C(C)C)C(C)C)C(=O)N[C@@H](C)C(=O)N[C@@H](Cc1c[nH]c2ccccc12)C(=O)N[C@@H](CC(C)C)C(=O)N[C@H](C(=O)N[C@@H](CCC(=O)O)C(=O)N[C@@H](CCCCN)C(=O)N[C@H](C(=O)N[C@@H](CCCCN)C(=O)NCC(=O)N[C@@H](Cc1ccccc1)C(=O)N[C@@H](CC(C)C)C(N)=O)C(C)C)C(C)C
# B2: [Aib8,Glu22,Glu23,Val25,Glu34,Lys35,Val36,Lys37]-GLP-1-(7-37)-peptidyl-Glu-Leu-Leu amide (peptide)
# peptide: H[Aib]EGTFTSDVSSYLEEEAVKEFIAWLVEKVKELL-NH2
# modifications: N-terminus assumed
# SMILES: CC[C@H](C)[C@H](NC(=O)[C@H](Cc1ccccc1)NC(=O)[C@H](CCC(=O)O)NC(=O)[C@H](CCCCN)NC(=O)[C@@H](NC(=O)[C@H](C)NC(=O)[C@H](CCC(=O)O)NC(=O)[C@H](CCC(=O)O)NC(=O)[C@H](CCC(=O)O)NC(=O)[C@H](CC(C)C)NC(=O)[C@H](Cc1ccc(O)cc1)NC(=O)[C@H](CO)NC(=O)[C@H](CO)NC(=O)[C@@H](NC(=O)[C@H](CC(=O)O)NC(=O)[C@H](CO)NC(=O)[C@@H](NC(=O)[C@H](Cc1ccccc1)NC(=O)[C@@H](NC(=O)CNC(=O)[C@H](CCC(=O)O)NC(=O)C(C)(C)NC(=O)[C@@H](N)Cc1c[nH]cn1)[C@@H](C)O)[C@@H](C)O)C(C)C)C(C)C)C(=O)N[C@@H](C)C(=O)N[C@@H](Cc1c[nH]c2ccccc12)C(=O)N[C@@H](CC(C)C)C(=O)N[C@H](C(=O)N[C@@H](CCC(=O)O)C(=O)N[C@@H](CCCCN)C(=O)N[C@H](C(=O)N[C@@H](CCCCN)C(=O)N[C@@H](CCC(=O)O)C(=O)N[C@@H](CC(C)C)C(=O)N[C@@H](CC(C)C)C(N)=O)C(C)C)C(C)C
# B3: [Aib8,Glu23,Val25,Glu34,Lys35,Gly36,Lys37]-GLP-1-(7-37)-peptidyl-Glu-Phe-Leu amide (peptide)
# peptide: H[Aib]EGTFTSDVSSYLEGEAVKEFIAWLVEKGKEFL-NH2
# modifications: N-terminus assumed
# SMILES: CC[C@H](C)[C@H](NC(=O)[C@H](Cc1ccccc1)NC(=O)[C@H](CCC(=O)O)NC(=O)[C@H](CCCCN)NC(=O)[C@@H](NC(=O)[C@H](C)NC(=O)[C@H](CCC(=O)O)NC(=O)CNC(=O)[C@H](CCC(=O)O)NC(=O)[C@H](CC(C)C)NC(=O)[C@H](Cc1ccc(O)cc1)NC(=O)[C@H](CO)NC(=O)[C@H](CO)NC(=O)[C@@H](NC(=O)[C@H](CC(=O)O)NC(=O)[C@H](CO)NC(=O)[C@@H](NC(=O)[C@H](Cc1ccccc1)NC(=O)[C@@H](NC(=O)CNC(=O)[C@H](CCC(=O)O)NC(=O)C(C)(C)NC(=O)[C@@H](N)Cc1c[nH]cn1)[C@@H](C)O)[C@@H](C)O)C(C)C)C(C)C)C(=O)N[C@@H](C)C(=O)N[C@@H](Cc1c[nH]c2ccccc12)C(=O)N[C@@H](CC(C)C)C(=O)N[C@H](C(=O)N[C@@H](CCC(=O)O)C(=O)N[C@@H](CCCCN)C(=O)NCC(=O)N[C@@H](CCCCN)C(=O)N[C@@H](CCC(=O)O)C(=O)N[C@@H](Cc1ccccc1)C(=O)N[C@@H](CC(C)C)C(N)=O)C(C)C
# B4: [Aib8,Glu23,Glu34,Lys35,Aib36,Lys37]-GLP-1-(7-37)-peptidyl-Glu-Phe-Leu amide (peptide)
# peptide: H[Aib]EGTFTSDVSSYLEGEAAKEFIAWLVEK[Aib]KEFL-NH2
# modifications: N-terminus assumed
# SMILES: CC[C@H](C)[C@H](NC(=O)[C@H](Cc1ccccc1)NC(=O)[C@H](CCC(=O)O)NC(=O)[C@H](CCCCN)NC(=O)[C@H](C)NC(=O)[C@H](C)NC(=O)[C@H](CCC(=O)O)NC(=O)CNC(=O)[C@H](CCC(=O)O)NC(=O)[C@H](CC(C)C)NC(=O)[C@H](Cc1ccc(O)cc1)NC(=O)[C@H](CO)NC(=O)[C@H](CO)NC(=O)[C@@H](NC(=O)[C@H](CC(=O)O)NC(=O)[C@H](CO)NC(=O)[C@@H](NC(=O)[C@H](Cc1ccccc1)NC(=O)[C@@H](NC(=O)CNC(=O)[C@H](CCC(=O)O)NC(=O)C(C)(C)NC(=O)[C@@H](N)Cc1c[nH]cn1)[C@@H](C)O)[C@@H](C)O)C(C)C)C(=O)N[C@@H](C)C(=O)N[C@@H](Cc1c[nH]c2ccccc12)C(=O)N[C@@H](CC(C)C)C(=O)N[C@H](C(=O)N[C@@H](CCC(=O)O)C(=O)N[C@@H](CCCCN)C(=O)NC(C)(C)C(=O)N[C@@H](CCCCN)C(=O)N[C@@H](CCC(=O)O)C(=O)N[C@@H](Cc1ccccc1)C(=O)N[C@@H](CC(C)C)C(N)=O)C(C)C
# B5: [Aib8,Glu23,Val25,Glu34,Lys35,Val36,Lys37]-GLP-1-(7-37)-peptidyl-Asp-Phe-Leu amide (peptide)
# peptide: H[Aib]EGTFTSDVSSYLEGEAVKEFIAWLVEKVKDFL-NH2
# modifications: N-terminus assumed
# SMILES: CC[C@H](C)[C@H](NC(=O)[C@H](Cc1ccccc1)NC(=O)[C@H](CCC(=O)O)NC(=O)[C@H](CCCCN)NC(=O)[C@@H](NC(=O)[C@H](C)NC(=O)[C@H](CCC(=O)O)NC(=O)CNC(=O)[C@H](CCC(=O)O)NC(=O)[C@H](CC(C)C)NC(=O)[C@H](Cc1ccc(O)cc1)NC(=O)[C@H](CO)NC(=O)[C@H](CO)NC(=O)[C@@H](NC(=O)[C@H](CC(=O)O)NC(=O)[C@H](CO)NC(=O)[C@@H](NC(=O)[C@H](Cc1ccccc1)NC(=O)[C@@H](NC(=O)CNC(=O)[C@H](CCC(=O)O)NC(=O)C(C)(C)NC(=O)[C@@H](N)Cc1c[nH]cn1)[C@@H](C)O)[C@@H](C)O)C(C)C)C(C)C)C(=O)N[C@@H](C)C(=O)N[C@@H](Cc1c[nH]c2ccccc12)C(=O)N[C@@H](CC(C)C)C(=O)N[C@H](C(=O)N[C@@H](CCC(=O)O)C(=O)N[C@@H](CCCCN)C(=O)N[C@H](C(=O)N[C@@H](CCCCN)C(=O)N[C@@H](CC(=O)O)C(=O)N[C@@H](Cc1ccccc1)C(=O)N[C@@H](CC(C)C)C(N)=O)C(C)C)C(C)C
# B6: [Aib8,Glu23,Val25,Glu34,Lys35,Val36,Lys37]-GLP-1-(7-37)-peptidyl-Glu-Lys amide (peptide)
# peptide: H[Aib]EGTFTSDVSSYLEGEAVKEFIAWLVEKVKEK-NH2
# modifications: N-terminus assumed
# SMILES: CC[C@H](C)[C@H](NC(=O)[C@H](Cc1ccccc1)NC(=O)[C@H](CCC(=O)O)NC(=O)[C@H](CCCCN)NC(=O)[C@@H](NC(=O)[C@H](C)NC(=O)[C@H](CCC(=O)O)NC(=O)CNC(=O)[C@H](CCC(=O)O)NC(=O)[C@H](CC(C)C)NC(=O)[C@H](Cc1ccc(O)cc1)NC(=O)[C@H](CO)NC(=O)[C@H](CO)NC(=O)[C@@H](NC(=O)[C@H](CC(=O)O)NC(=O)[C@H](CO)NC(=O)[C@@H](NC(=O)[C@H](Cc1ccccc1)NC(=O)[C@@H](NC(=O)CNC(=O)[C@H](CCC(=O)O)NC(=O)C(C)(C)NC(=O)[C@@H](N)Cc1c[nH]cn1)[C@@H](C)O)[C@@H](C)O)C(C)C)C(C)C)C(=O)N[C@@H](C)C(=O)N[C@@H](Cc1c[nH]c2ccccc12)C(=O)N[C@@H](CC(C)C)C(=O)N[C@H](C(=O)N[C@@H](CCC(=O)O)C(=O)N[C@@H](CCCCN)C(=O)N[C@H](C(=O)N[C@@H](CCCCN)C(=O)N[C@@H](CCC(=O)O)C(=O)N[C@@H](CCCCN)C(N)=O)C(C)C)C(C)C
# B7: [Aib8,Glu23,Val25,Glu30,Glu34,Lys35,Val36,Lys37]-GLP-1-(7-37)-peptidyl-Glu-Lys-Leu amide (peptide)
# peptide: H[Aib]EGTFTSDVSSYLEGEAVKEFIEWLVEKVKEKL-NH2
# modifications: N-terminus assumed
# SMILES: CC[C@H](C)[C@H](NC(=O)[C@H](Cc1ccccc1)NC(=O)[C@H](CCC(=O)O)NC(=O)[C@H](CCCCN)NC(=O)[C@@H](NC(=O)[C@H](C)NC(=O)[C@H](CCC(=O)O)NC(=O)CNC(=O)[C@H](CCC(=O)O)NC(=O)[C@H](CC(C)C)NC(=O)[C@H](Cc1ccc(O)cc1)NC(=O)[C@H](CO)NC(=O)[C@H](CO)NC(=O)[C@@H](NC(=O)[C@H](CC(=O)O)NC(=O)[C@H](CO)NC(=O)[C@@H](NC(=O)[C@H](Cc1ccccc1)NC(=O)[C@@H](NC(=O)CNC(=O)[C@H](CCC(=O)O)NC(=O)C(C)(C)NC(=O)[C@@H](N)Cc1c[nH]cn1)[C@@H](C)O)[C@@H](C)O)C(C)C)C(C)C)C(=O)N[C@@H](CCC(=O)O)C(=O)N[C@@H](Cc1c[nH]c2ccccc12)C(=O)N[C@@H](CC(C)C)C(=O)N[C@H](C(=O)N[C@@H](CCC(=O)O)C(=O)N[C@@H](CCCCN)C(=O)N[C@H](C(=O)N[C@@H](CCCCN)C(=O)N[C@@H](CCC(=O)O)C(=O)N[C@@H](CCCCN)C(=O)N[C@@H](CC(C)C)C(N)=O)C(C)C)C(C)C
# Target: human GLP-1 receptor (human, UniProt P43220)
# Test: cell-based or functional assay
Binder,"CRE luciferase EC50, 0% HSA [nM]","CRE luciferase EC50, 1% HSA [nM]"
B1,0.129,0.032
B2,0.439,0.11
"HAEGTFTSDVSSYLEGQAAKEFIAWLVEKVKEHL-NH2 [[Glu34,Lys35,Val36,Lys37]-GLP-1-(7-37)-peptidyl-Glu-His-Leu amide]",0.04,0.01
B3,0.034,0.007
B4,0.163,0.143
"HGEGTFTSDVSSYLEEEAVKEFIAWLVEKVKEKL-NH2 [[Gly8,Glu22,Glu23,Val25,Glu34,Lys35,Val36,Lys37]-GLP-1-(7-37)-peptidyl-Glu-Lys-Leu amide]",0.3,0.076
B5,0.323,0.128
B6,0.043,0.014
B7,0.163,0.039
